Force needed to pull apart the new cells of the cluster, pulling force up to which the two cells remained attached and interaction force between the two cells data for three substances are collected here from paper PMC9635822.

Holding throughout (experiment): optical tweezers, force between two trapped cells
Assay [1] deals with AGA2-Im7 displayed on S. cerevisiae cells (ScΨ) (UniProt Q03708).
In assay [2] the target is AGA2-CL7 displayed on S. cerevisiae cells (ScΦ) (UniProt Q47112).
Assay [3] concerns the target AGA2-SpyCatcher displayed on S. cerevisiae cells (ScB).
The target of assay [4] is AGA2-SpyTag displayed on S. cerevisiae cells (ScA).

Some results are limits rather than exact numbers.

UniProt Q03708, sequence (Q03708 whole entry): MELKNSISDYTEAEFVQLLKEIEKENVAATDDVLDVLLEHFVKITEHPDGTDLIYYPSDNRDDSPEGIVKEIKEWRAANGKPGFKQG

Take “AGA2-CL7 displayed on S. cerevisiae cells (ScΦ) (from UniProt Q47112 371-576) (domain or fragment)”: in assay [1], the force needed to pull apart the new cells of the cluster was below 351 pN and the pulling force up to which the two cells remained attached was 335 pN.
Regarding “AGA2-SpyCatcher displayed on S. cerevisiae cells (ScB) (designed binder)”, the interaction force between the two cells in assay [2] is below 10 pN.
For the substance “AGA2-SpyTag displayed on S. cerevisiae cells (ScA) (peptide)”, in assay [3], the force needed to pull apart the new cells of the cluster is below 248 pN and the pulling force up to which the two cells remained attached is 335 pN. Besides, the interaction force between the two cells in assay [4] was below 10 pN.
